Results on one molecule are retold here after PMC6742660, “Autoinhibition and activation mechanisms of the eukaryotic lipid flippase Drs2p-Cdc50p” (Nature Communications, 2019).

For the experiment, the target named is T1, Drs2p (S. cerevisiae, UniProt P39524 1-1355).
T1 construct: Drs2p, Saccharomyces cerevisiae, intact protein of 1355 residues; Co-purified with endogenous Cdc50p; Residues 196-212 of the N-terminal peptide and Glu1231-Ala1309 of the C-terminal peptide are ordered in the apo map; The last 46 residues are disordered; also called Drs2p ATPase; P4 ATPase subunit of the Drs2p-Cdc50p lipid flippase; not shown: triple FLAG, C-terminal, kept
T1 sequence (looked up): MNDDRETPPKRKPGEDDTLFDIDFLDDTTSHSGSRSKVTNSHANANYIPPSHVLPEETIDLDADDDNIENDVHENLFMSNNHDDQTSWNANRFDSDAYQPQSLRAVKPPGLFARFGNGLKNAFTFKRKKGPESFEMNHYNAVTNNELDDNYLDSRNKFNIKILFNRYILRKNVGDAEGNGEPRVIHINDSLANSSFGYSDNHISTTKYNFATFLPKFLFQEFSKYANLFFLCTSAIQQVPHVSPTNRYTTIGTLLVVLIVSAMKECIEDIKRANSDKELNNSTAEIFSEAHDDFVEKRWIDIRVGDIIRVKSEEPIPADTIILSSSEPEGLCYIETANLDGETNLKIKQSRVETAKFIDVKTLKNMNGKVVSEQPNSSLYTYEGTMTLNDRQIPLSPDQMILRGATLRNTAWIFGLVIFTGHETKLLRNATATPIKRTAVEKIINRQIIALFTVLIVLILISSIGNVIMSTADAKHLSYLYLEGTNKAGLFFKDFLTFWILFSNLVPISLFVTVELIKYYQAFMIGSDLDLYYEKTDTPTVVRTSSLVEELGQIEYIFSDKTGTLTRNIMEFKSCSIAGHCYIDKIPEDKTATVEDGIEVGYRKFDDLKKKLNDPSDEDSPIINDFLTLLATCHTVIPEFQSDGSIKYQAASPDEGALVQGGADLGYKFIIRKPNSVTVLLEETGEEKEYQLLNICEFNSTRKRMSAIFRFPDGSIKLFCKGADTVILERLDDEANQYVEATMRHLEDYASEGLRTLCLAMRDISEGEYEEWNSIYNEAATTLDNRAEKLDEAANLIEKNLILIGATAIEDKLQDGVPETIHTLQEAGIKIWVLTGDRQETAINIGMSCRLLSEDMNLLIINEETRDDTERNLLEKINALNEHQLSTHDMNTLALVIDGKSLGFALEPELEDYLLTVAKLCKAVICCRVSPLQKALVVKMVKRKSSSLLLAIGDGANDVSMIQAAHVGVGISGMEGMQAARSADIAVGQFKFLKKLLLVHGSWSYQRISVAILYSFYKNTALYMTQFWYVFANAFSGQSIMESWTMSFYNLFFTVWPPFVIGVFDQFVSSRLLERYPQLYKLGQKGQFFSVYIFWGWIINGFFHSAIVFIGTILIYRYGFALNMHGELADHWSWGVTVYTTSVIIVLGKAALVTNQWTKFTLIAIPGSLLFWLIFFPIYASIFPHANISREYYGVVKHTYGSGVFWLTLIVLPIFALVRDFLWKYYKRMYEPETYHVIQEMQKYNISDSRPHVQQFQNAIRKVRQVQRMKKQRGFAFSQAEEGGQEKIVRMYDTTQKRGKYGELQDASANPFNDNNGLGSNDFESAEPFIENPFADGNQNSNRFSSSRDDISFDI
Description: cryo-EM structure; endogenous Drs2p-Cdc50p complex as purified, apo autoinhibited form, 3 mg/mL; 0.01% LMNG, 0.001% CHS, 150 mM NaCl, 20 mM Tris-HCl pH 7.4, 1 mM MgCl2, 1 mM MnCl2; 2.8 Å map. The following applies: both partners purified.

B1: Cdc50p (natural protein, S. cerevisiae, UniProt P25656 1-391, looked up)
chain: MVSLFKRGKAPPLTKEGPTSKKPPNTAFRQQRLKAWQPILSPQSVLPLLIFVACIFTPIGIGLIVSATKVQDLTIDYSHCDTKASTTAFEDIPKKYIKYHFKSKVENKPQWRLTENENGEQSCELQFEIPNDIKKSIFIYYKITNFYQNHRRYVQSFDTKQILGEPIKKDDLDTSCSPIRSREDKIIYPCGLIANSMFNDTFSQVLSGIDDTEDYNLTNKHISWSIDRHRFKTTKYNASDIVPPPNWMKKYPDGYTDENLPDIHTWEEFQVWMRTAAFPKFYKLTLKNESASLPKGKYQMNIELNYPISLFGGTKSFVLTTNGAIGGRNMSLGVLYLIVAGLCALFGIIFLVKLIFQPRAMGDHTYLNFDDEENEDYEDVHAENTTLREIL
modifications: N-glycans at Asn-199, Asn-216 and Asn-288; disulfide bonds Cys-80 with Cys-123 and Cys-176 with Cys-190
notes: Cdc50p, Saccharomyces cerevisiae, endogenous untagged subunit of the Drs2p-Cdc50p complex; The first half of the 40-residue N-terminal peptide and the 31-residue C-terminal peptide are disordered in the map
Consider B1, for which the binding result was “binds”.
